Measured values as given in patent US20200079833A1 (AstraZeneca / MedImmune, published 2020).
Starred links: 1 amine or outer side, 2 acyl side, 3 side chain; linkers in the order of their positions; H or OH if unused. Non-standard residues stand in square brackets, D forms with d. Groups on a side chain read outwards from the residue. Primed or numbered codes have the meaning given here. No end group written: not given here. *: point of attachment. γGlu = O=C(O)[C@H](CCC(=O)[*:2])N[*:1]; Stearoyl = CCCCCCCCCCCCCCCCCC(=O)*; Palmitoyl = CCCCCCCCCCCCCCCC(=O)*; αMeF = C[C@](N)(Cc1ccccc1)C(=O)O; αMeK = C[C@](N)(CCCCN)C(=O)O; αMeS = C[C@](N)(CO)C(=O)O; PEG2′ = not defined here; Aib = CC(C)(N)C(=O)O

T1: GLP-1R (INS1e assay) (UniProt P32301 22-463, limits assumed)
T1 sequence (looked up): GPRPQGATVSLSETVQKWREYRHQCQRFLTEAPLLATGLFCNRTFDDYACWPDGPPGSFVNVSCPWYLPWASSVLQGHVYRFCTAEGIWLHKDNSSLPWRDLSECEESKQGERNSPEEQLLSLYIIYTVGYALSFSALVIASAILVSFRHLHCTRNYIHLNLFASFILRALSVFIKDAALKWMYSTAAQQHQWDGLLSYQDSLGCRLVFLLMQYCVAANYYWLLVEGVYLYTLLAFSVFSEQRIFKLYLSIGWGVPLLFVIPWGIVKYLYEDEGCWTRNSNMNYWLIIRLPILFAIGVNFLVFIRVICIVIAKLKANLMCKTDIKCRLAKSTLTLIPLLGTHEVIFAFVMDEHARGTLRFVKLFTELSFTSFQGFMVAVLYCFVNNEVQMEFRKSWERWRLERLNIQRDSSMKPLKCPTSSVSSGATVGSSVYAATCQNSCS

B1: SEQ ID NO 74 (peptide)
peptide: H[Aib]EGS[αMeF]TSDV[αMeS]S[αMeF]LEGEAA[αMeK]E[αMeF]IA[αMeF]K([γGlu-Palmitoyl])V[αMeK]GG-NH2
modifications: N-terminus assumed
SMILES: CCCCCCCCCCCCCCCC(=O)N[C@@H](CCC(=O)NCCCC[C@H](NC(=O)[C@](C)(Cc1ccccc1)NC(=O)[C@H](C)NC(=O)[C@@H](NC(=O)[C@](C)(Cc1ccccc1)NC(=O)[C@H](CCC(=O)O)NC(=O)[C@](C)(CCCCN)NC(=O)[C@H](C)NC(=O)[C@H](C)NC(=O)[C@H](CCC(=O)O)NC(=O)CNC(=O)[C@H](CCC(=O)O)NC(=O)[C@H](CC(C)C)NC(=O)[C@](C)(Cc1ccccc1)NC(=O)[C@H](CO)NC(=O)[C@](C)(CO)NC(=O)[C@@H](NC(=O)[C@H](CC(=O)O)NC(=O)[C@H](CO)NC(=O)[C@@H](NC(=O)[C@](C)(Cc1ccccc1)NC(=O)[C@H](CO)NC(=O)CNC(=O)[C@H](CCC(=O)O)NC(=O)C(C)(C)NC(=O)[C@@H](N)Cc1c[nH]cn1)[C@@H](C)O)C(C)C)[C@@H](C)CC)C(=O)N[C@H](C(=O)N[C@@](C)(CCCCN)C(=O)NCC(=O)NCC(N)=O)C(C)C)C(=O)O
B2: SEQ ID NO 76 (peptide)
peptide: H[Aib]EGS[αMeF]TSDV[αMeS]S[αMeF]LEGEAA[αMeK]E[αMeF]IK([γGlu-Palmitoyl])[αMeF]VV[αMeK]GG-NH2
modifications: N-terminus assumed
SMILES: CCCCCCCCCCCCCCCC(=O)N[C@@H](CCC(=O)NCCCC[C@H](NC(=O)[C@@H](NC(=O)[C@](C)(Cc1ccccc1)NC(=O)[C@H](CCC(=O)O)NC(=O)[C@](C)(CCCCN)NC(=O)[C@H](C)NC(=O)[C@H](C)NC(=O)[C@H](CCC(=O)O)NC(=O)CNC(=O)[C@H](CCC(=O)O)NC(=O)[C@H](CC(C)C)NC(=O)[C@](C)(Cc1ccccc1)NC(=O)[C@H](CO)NC(=O)[C@](C)(CO)NC(=O)[C@@H](NC(=O)[C@H](CC(=O)O)NC(=O)[C@H](CO)NC(=O)[C@@H](NC(=O)[C@](C)(Cc1ccccc1)NC(=O)[C@H](CO)NC(=O)CNC(=O)[C@H](CCC(=O)O)NC(=O)C(C)(C)NC(=O)[C@@H](N)Cc1c[nH]cn1)[C@@H](C)O)C(C)C)[C@@H](C)CC)C(=O)N[C@@](C)(Cc1ccccc1)C(=O)N[C@H](C(=O)N[C@H](C(=O)N[C@@](C)(CCCCN)C(=O)NCC(=O)NCC(N)=O)C(C)C)C(C)C)C(=O)O
B3: SEQ ID NO 71 (peptide)
peptide: H[Aib]EGS[αMeF]TSDV[αMeS]S[αMeF]LEGEAA[αMeK]E[αMeF]IA[αMeF]VV[αMeK]K([γGlu-Palmitoyl])G-NH2
modifications: N-terminus assumed
SMILES: CCCCCCCCCCCCCCCC(=O)N[C@@H](CCC(=O)NCCCC[C@H](NC(=O)[C@](C)(CCCCN)NC(=O)[C@@H](NC(=O)[C@@H](NC(=O)[C@](C)(Cc1ccccc1)NC(=O)[C@H](C)NC(=O)[C@@H](NC(=O)[C@](C)(Cc1ccccc1)NC(=O)[C@H](CCC(=O)O)NC(=O)[C@](C)(CCCCN)NC(=O)[C@H](C)NC(=O)[C@H](C)NC(=O)[C@H](CCC(=O)O)NC(=O)CNC(=O)[C@H](CCC(=O)O)NC(=O)[C@H](CC(C)C)NC(=O)[C@](C)(Cc1ccccc1)NC(=O)[C@H](CO)NC(=O)[C@](C)(CO)NC(=O)[C@@H](NC(=O)[C@H](CC(=O)O)NC(=O)[C@H](CO)NC(=O)[C@@H](NC(=O)[C@](C)(Cc1ccccc1)NC(=O)[C@H](CO)NC(=O)CNC(=O)[C@H](CCC(=O)O)NC(=O)C(C)(C)NC(=O)[C@@H](N)Cc1c[nH]cn1)[C@@H](C)O)C(C)C)[C@@H](C)CC)C(C)C)C(C)C)C(=O)NCC(N)=O)C(=O)O
B4: SEQ ID NO 72 (peptide)
peptide: H[Aib]EGS[αMeF]TSDV[αMeS]S[αMeF]LEGEAA[αMeK]E[αMeF]IA[αMeF]VVK([γGlu-Palmitoyl])GG-NH2
modifications: N-terminus assumed
SMILES: CCCCCCCCCCCCCCCC(=O)N[C@@H](CCC(=O)NCCCC[C@H](NC(=O)[C@@H](NC(=O)[C@@H](NC(=O)[C@](C)(Cc1ccccc1)NC(=O)[C@H](C)NC(=O)[C@@H](NC(=O)[C@](C)(Cc1ccccc1)NC(=O)[C@H](CCC(=O)O)NC(=O)[C@](C)(CCCCN)NC(=O)[C@H](C)NC(=O)[C@H](C)NC(=O)[C@H](CCC(=O)O)NC(=O)CNC(=O)[C@H](CCC(=O)O)NC(=O)[C@H](CC(C)C)NC(=O)[C@](C)(Cc1ccccc1)NC(=O)[C@H](CO)NC(=O)[C@](C)(CO)NC(=O)[C@@H](NC(=O)[C@H](CC(=O)O)NC(=O)[C@H](CO)NC(=O)[C@@H](NC(=O)[C@](C)(Cc1ccccc1)NC(=O)[C@H](CO)NC(=O)CNC(=O)[C@H](CCC(=O)O)NC(=O)C(C)(C)NC(=O)[C@@H](N)Cc1c[nH]cn1)[C@@H](C)O)C(C)C)[C@@H](C)CC)C(C)C)C(C)C)C(=O)NCC(=O)NCC(N)=O)C(=O)O
B5: SEQ ID NO 75 (peptide)
peptide: H[Aib]EGS[αMeF]TSDV[αMeS]S[αMeF]LEGEAA[αMeK]E[αMeF]IAK([γGlu-Palmitoyl])VV[αMeK]GG-NH2
modifications: N-terminus assumed
SMILES: CCCCCCCCCCCCCCCC(=O)N[C@@H](CCC(=O)NCCCC[C@H](NC(=O)[C@H](C)NC(=O)[C@@H](NC(=O)[C@](C)(Cc1ccccc1)NC(=O)[C@H](CCC(=O)O)NC(=O)[C@](C)(CCCCN)NC(=O)[C@H](C)NC(=O)[C@H](C)NC(=O)[C@H](CCC(=O)O)NC(=O)CNC(=O)[C@H](CCC(=O)O)NC(=O)[C@H](CC(C)C)NC(=O)[C@](C)(Cc1ccccc1)NC(=O)[C@H](CO)NC(=O)[C@](C)(CO)NC(=O)[C@@H](NC(=O)[C@H](CC(=O)O)NC(=O)[C@H](CO)NC(=O)[C@@H](NC(=O)[C@](C)(Cc1ccccc1)NC(=O)[C@H](CO)NC(=O)CNC(=O)[C@H](CCC(=O)O)NC(=O)C(C)(C)NC(=O)[C@@H](N)Cc1c[nH]cn1)[C@@H](C)O)C(C)C)[C@@H](C)CC)C(=O)N[C@H](C(=O)N[C@H](C(=O)N[C@@](C)(CCCCN)C(=O)NCC(=O)NCC(N)=O)C(C)C)C(C)C)C(=O)O

Molecular target: T1, GLP-1R (INS1e assay)
Experiment: cell-based or functional assay

Binder | INS1e assay EC50 GLP-1 R n1 [nM] | INS1e assay EC50 GLP-1 R n2 [nM] | INS1e assay EC50 Mean pM GLP-1R [pM]
H[Aib]EGS[αMeF]TSDVSK([PEG2′-PEG2′-PEG2′-Stearoyl])YLEGEAA[αMeK]E[αMeF]IA[αMeF]VVEGG-NH2 [SEQ ID NO 64] | 0.0068 | 0.0121 | 9
B1 | 0.0774 | 0.127 | 102
H[Aib]EGS[αMeF]TSDVSK([PEG2′-PEG2′-PEG2′-Stearoyl])YLEGEAA[Aib]E[αMeF]IA[αMeF]VVEGG-NH2 [SEQ ID NO 63] | 0.0231 | 0.0392 | 31
H[Aib]EGS[αMeF]TSDVSK([PEG2′-PEG2′-PEG2′-Stearoyl])YLEGEAAKE[αMeF]IA[αMeF]VVEGG-NH2 [SEQ ID NO 61] | 0.00557 | 0.0135 | 10
H[Aib]EGS[αMeF]TSDVSK([PEG2′-PEG2′-PEG2′-Stearoyl])YLEGEAAEE[αMeF]IA[αMeF]VVEGG-NH2 [SEQ ID NO 62] | 0.209 | 0.0837 | 146
H[Aib]EGS[αMeF]TSDV[αMeS]S[αMeF]LEGEAA[αMeK]EFIK([PEG2′-PEG2′-γGlu-Stearoyl])WVVEGG-NH2 [SEQ ID NO 68] | 2.69 | 4.87 | 3780
H[Aib]EGS[αMeF]TSDV[αMeS]S[αMeF]LEGEAAKEFIK([PEG2′-PEG2′-γGlu-Stearoyl])WVVEGG-NH2 [SEQ ID NO 65] | 2.57 | 3.74 | 3160
H[Aib]EGS[αMeF]TSDVSK([PEG2′-PEG2′-γGlu-Stearoyl])YLEGEAA[αMeK]E[αMeF]IA[αMeF]VVEGG-NH2 [SEQ ID NO 60] | 14.3 | 12.1 | 13200
B2 | 0.326 | 0.531 | 429
B3 | 0.604 | 0.841 | 723
B4 | 4.26 | 8.07 | 6160
H[Aib]EGS[αMeF]TSDV[αMeS]S[αMeF]LEGEAAAEFIK([PEG2′-PEG2′-γGlu-Stearoyl])WVVEGG-NH2 [SEQ ID NO 69] | 19.2 | 25 | 22100
B5 | 0.0497 | 0.063 | 56
H[Aib]EGS[αMeF]TSDV[αMeS]S[αMeF]LEGEAA[Aib]EFIK([PEG2′-PEG2′-γGlu-Stearoyl])WVVEGG-NH2 [SEQ ID NO 67] | 6.15 | 18.1 | 12100
H[Aib]EGS[αMeF]TSDV[αMeS]S[αMeF]LEGEAAEEFIK([PEG2′-PEG2′-γGlu-Stearoyl])WVVEGG-NH2 [SEQ ID NO 66] | 45.6 | 38.8 | 42200
